Measurements from patent US8871909B2, “Antibodies inhibiting c-Met dimerization and uses thereof” (Pierre Fabre Medicament, priority 2007, dated 2014).

Tests used:
NCI-H441 [1] = assay: In vivo combination of 224G11 and Navelbine on NCI-H441 xenograft model (Example 19); design: species or system Athymic nude mice; details: day 41 post first injection
Experimental: NCI-H441 cells from ATCC were routinely cultured in RPMI 1640 medium, 10% FCS, 1% L-Glutamine. Cells were split two days before engraftment being in exponential phase of growth. Ten million NCI-H441 cells were engrafted to Athymic nude mice. […] Mice were treated i.p. either with a loading dose of 2 mg of 224G11 Mab/mouse and then twice a week with 1 mg of antibody/mouse until Day 38 or with 3 injections of Navelbine® (D5, D12, D19) at 8 mg/kg. A third group administered with the combine treatment was also included. Navelbine® was given by i.p. injections. Tumor volume was measured twice a week and calculated by the formula: π/6×length×width×height and animal weights were monitored every day over the period of Navelbine® treatment. Statistical analysis was performed at each measured time using either a t-test or a Mann-Whitney test. […] Results are represented in FIG. 45.

[2] = target: T1, recombinant c-Met-Extra-Cellular Domain (ECD) fused to an human IgG Fc domain (Homo sapiens, UniProt P08581); assay: Determination of affinity constants (KD) by Biacore analysis; assay type: binding; details: first column; Fab fragments, 25° C.
T1 construct: recombinant c-Met-Extra-Cellular Domain (ECD) fused to an human IgG Fc domain (R&D Systems) as antigen; purchased R&D Systems
Source text: The binding affinity of purified 11E1 and 224G11 antibodies was investigated by BIAcore X using recombinant c-Met-Extra-Cellular Domain (ECD) fused to an human IgG Fc domain (R&D Systems) as antigen (MW=129 kDa). As both c-Met-Fc fusion proteins and antibodies are bivalent compounds, Fab fragments of mAbs 11E1 and 224G11 (MW=50 kDa) were generated by papain cleavage, purified and used in this assay to avoid interference with avidity parameter. For the assay, an anti-Tag histidine capture antibody was coated on CM5 sensorchips. The running buffer was HBS-EP, the flow rate was 30 μl/min and the test was performed at 25° C. Soluble c-Met (ECD_M1)2-Fc-(HHHHHH)2 antigen was captured on the sensorchip (around 270 RU), and the antibodies to be tested were used in solution as analytes. The sensorship was regenerated using Glycine, HCl pH 1.5 buffer on both flowcells for half a minute.

NCI-H441 [3] = assay: NCI-H441 xenograft model (Example 11)
Source text: The evaluation of anti-c-met antibodies on the in vivo activity of this non autocrine cell line could give some insights about their potency to impact on c-met dimerization.

c-Met = assay: BRET analysis of c-Met dimerization on c-Met transfected CHO cells; assay type: cell-based; details: CHO cells expressing C-Met-Rluc and C-Met-K1100A-YFP, supernatants
Source text: The technology BRET, used in the step iii) of the process, is well known by the person skill in the art and will be detailed in the following examples. More particularly, BRET (Bioluminescence Resonance Energy Transfer) is a non-radiative energy transfer occurring between a bioluminescent donor (Renilla Luciferase (Rluc)) and a fluorescent acceptor, a mutant of GFP (Green Fluorescent Protein) or YFP (Yellow fluorescent protein). In the present case EYFP (Enhanced Yellow Fluorescent Protein) was used. The efficacy of transfer depends on the orientation and the distance between the donor and the acceptor. Then, the energy transfer can occur only if the two molecules are in close proximity (1-10 nm). This property is used to generate protein-protein interaction assays. Indeed, in order to study the interaction between two partners, the first one is genetically fused to the Renilla Luciferase and the second one to the yellow mutant of the GFP. Fusion proteins are generally, but not obligatory, expressed in mammalian cells. In presence of its membrane permeable substrate (coelenterazine), Rluc emits blue light. If the GFP mutant is closer than 10 nm from the Rluc, an energy transfer can occur and an additional yellow signal can be detected. The BRET signal is measured as the ratio between the light emitted by the acceptor and the light emitted by the donor. So the BRET signal will increase as the two fusion proteins are brought into proximity or if a conformational change bring Rluc and GFP mutant closer.
Then antibodies inhibiting at least 50% cell proliferation were evaluated as supernatants by BRET analysis on c-Met transfected cells. For that purpose, CHO stable cell lines expressing C-Met-Rluc or C-Met-Rluc and C-Met-K1100A-YFP were generated. Cells were distributed in white 96 well microplates in DMEM-F12/FBS 5% culture medium one or two days before BRET experiments. Cells were first cultured at 37° C. with CO2 5% in order to allow cell attachment to the plate. Cells were then starved with 200 μl DMEM/well overnight. Immediately prior to the experiment, DMEM was removed and cells quickly washed with PBS. Cells were incubated in PBS in the presence or absence of antibodies to be tested or reference compounds, 10 min at 37° C. prior to the addition of coelenterazine with or without HGF in a final volume of 50 μl. […]
BRET ratio has been defined previously [Angers et al., Proc. Natl. Acad. Sci. USA, 2000, 97:3684-3689] as: [(emission at 530 nm)−(emission at 485 nm)×Cf]/(emission at 485 nm), where Cf corresponds to (emission at 530 nm)/(emission at 485 nm) for cells expressing Rluc fusion protein alone in the same experimental conditions. […] For the sake of readability, results are expressed in milliBRET units (mBU); mBU corresponds to the BRET ratio multiplied by 1000.

HGF-cMet = target: T2, HGF-cMet (Homo sapiens, UniProt P08581); assay: HGF-cMet competition assay (ELISA); assay type: binding; details: at high antibody concentration, purified murine antibodies
T2 construct: recombinant c-Met-Extra-Cellular Domain (ECD) fused to an human IgG Fc domain
Source text: FIG. 54: HGF-cMet competition assay. In this ELISA-based assay, recombinant Fc-cMET residual binding to plastic coated HGF in the presence of purified murine monoclonal antibodies 11E1, 224G11 and 227H1 was detected with […] and measured at 450 nm;
FIG. 58: HGF-cMet competition assay of 227H1 murine and recombinant antibodies. In this ELISA-based assay, recombinant Fc-cMet residual binding to plastic coated HGF in the presence of the different forms of the 227H1 antibody was detected with a biotinylated unrelated anti-cMet antibody. Purified murine 227H1 monoclonal antibody, chimeric and HZ4VH-derived humanized 227H1-derived recombinant antibodies were tested and compared for their abilities to compete with HGF-cMet binding when measured at 450 nm;
Humanization of the anti-cMet antibodies were performed independently for each chain and sequentially, regarding to the analysed amino acids in each variable domain. The humanization process was evaluated in a first attempt in an ELISA-based binding assay to recombinant Fc-cMet; binding activities the humanized antibodies being compared to the recombinant chimeric antibody. In a second attempt, anti-cMet humanized antibodies were evaluated for their abilities to displace the Fc-cMet binding onto plastic-coated recombinant HGF; this competition assay allowing the direct comparison of murine, chimeric and humanized versions of the anti-cMet antibodies.
These two assays were used to characterize the recombinant chimeric and humanized versions of the murine anti-cMet antibodies. To this end, briefly, anti-cMet variable domains, either murine or humanized, were cloned into LONZA's pCONplus expression vectors series and recombinant IgG1/κ-derived antibodies were expressed in CHO cells. […] Both direct binding and HGF-competition assays were assessed to better characterize recombinant chimeric or humanized versions.

SEMA domain = target: T3, SEMA domain (Homo sapiens, UniProt P08581); assay: ELISA recognition of recombinant SEMA domain; assay type: binding
T3 construct: the recombinant c-Met-Fc protein and the recombinant SEMA domain
Experimental: To characterize the pattern of recognition of the 3 selected antibodies, 3 ELISA have been set up with the recombinant c-Met protein, its monomeric fragment (obtained by cleavage of the recombinant c-Met-Fc protein and the recombinant SEMA domain.
To perform these ELISA the human dimeric c-Met protein (R&D sytems, cat#358MT) is coated at the concentration of 0.7 μg/ml in PBS overnight at 4° C. After saturation of the plates (Costar #3690) with a 0.5% gelatin solution 2 hours at 37° C., hybridoma supernatants are incubated 1 hour at 37° C. Once rinsed with PBS, the anti-mouse HRP-antibody (Jackson ImmunoResearch, catalog #115-035-164) is added to each well at a 1/5000 dilution in ELISA buffer (0.1% gelatin/0.05% Tween 20 in PBS) and the plates incubated for 1 hour at 37° C. […] The reaction is left to occur for 5 min at room temperature. The reaction is stopped by the addition of 50 μl/well of a 1 M H2SO4 solution and read on a plate reader at 450 nm. The same kind of protocol was performed on monomeric c-Met and SEMA domain but in that cases proteins were coated at 5 and 3 μg/ml respectively.

BxPC3 cells = assay: In vitro inhibition of BxPC3 proliferation ([3H]thymidine incorporation); assay type: cell-based; details: BxPC3, in absence of ligand, antibody alone
Experimental: For that purpose 50 000 BxPC3 cells were plated in 96 well plates in RPMI medium, 2 mM L. Glutamine, without SVF. […] After 3 days, cells were pulsed with 0.5 μCi of [^3H]thymidine for 16 hours. The magnitude of [^3H]thymidine incorporated into trichloroacetic acid-insoluble DNA was quantified by liquid scintillation counting. Results were expressed as raw data to really evaluate the intrinsic agonistic effect of each Mab (FIGS. 2A and 2B).

A549 cells = assay: Matrigel invasion assay with A549 cells; assay type: cell-based; details: A549, Mab 10 μg/ml, basal (no HGF)
Experimental: To evaluate the inhibiting effect of the anti-c-Met antibodies on the invasion process, A549 cells were plated in the upper chamber of BD BioCoat™ Matrigel™ invasion chambers (6.5 mm diameter wells with 8-μm pre size polycarbonate membranes). A459 cells were starved 24 hours before performing the invasion assay. Then 500 000 A549 cells were plated in chemotaxis buffer (DMEM medium, 0.1% BSA, 12 mM Hepes) in the upper well of each chamber, upon the Matrigel coating either with or without the antibody to be tested (final Mab concentration 10 μg/ml). After 1 hour incubation of the plates at 37° C. with 5% CO2, the lower chambers were filled with either growth medium containing 400 ng/ml of rhHGF or with growth medium alone. The chambers were incubated for 48 additional hours at 37° C. with 5% CO2. At the end of this incubation time, cells that remained on upper surface of the filter were gently removed with a cotton swab, cells that migrated to the lower surface of the filter were lysed, stained with CyQuant GR dye buffer (Invitrogen) and counted using a fluorescence reader Berthold Mithras LB940. All conditions were tested as triplicates.

T1 sequence (P08581 25-932 limits assumed): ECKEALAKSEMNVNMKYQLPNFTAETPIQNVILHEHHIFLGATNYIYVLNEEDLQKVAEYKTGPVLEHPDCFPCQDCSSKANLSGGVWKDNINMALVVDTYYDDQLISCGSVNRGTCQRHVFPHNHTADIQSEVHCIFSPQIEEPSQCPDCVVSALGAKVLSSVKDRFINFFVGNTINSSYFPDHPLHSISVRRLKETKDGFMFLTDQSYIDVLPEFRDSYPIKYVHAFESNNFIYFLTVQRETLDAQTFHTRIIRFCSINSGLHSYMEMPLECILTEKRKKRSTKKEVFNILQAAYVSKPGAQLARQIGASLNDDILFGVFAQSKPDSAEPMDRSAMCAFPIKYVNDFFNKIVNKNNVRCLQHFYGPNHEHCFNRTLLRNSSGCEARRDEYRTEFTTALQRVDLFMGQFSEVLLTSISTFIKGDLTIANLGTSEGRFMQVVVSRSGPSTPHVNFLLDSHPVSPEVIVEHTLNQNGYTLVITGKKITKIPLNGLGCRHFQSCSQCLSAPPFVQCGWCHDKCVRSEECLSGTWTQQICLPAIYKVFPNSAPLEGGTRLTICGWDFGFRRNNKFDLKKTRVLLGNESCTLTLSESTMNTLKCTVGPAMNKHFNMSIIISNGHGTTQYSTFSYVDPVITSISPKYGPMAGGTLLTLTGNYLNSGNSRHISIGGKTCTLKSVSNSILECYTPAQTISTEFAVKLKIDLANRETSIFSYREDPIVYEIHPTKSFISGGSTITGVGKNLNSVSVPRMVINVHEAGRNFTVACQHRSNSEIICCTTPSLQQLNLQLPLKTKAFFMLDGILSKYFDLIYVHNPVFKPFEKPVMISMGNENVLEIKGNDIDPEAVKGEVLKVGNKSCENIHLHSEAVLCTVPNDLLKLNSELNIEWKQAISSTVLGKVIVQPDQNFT
T3 sequence (P08581 27-515 limits assumed): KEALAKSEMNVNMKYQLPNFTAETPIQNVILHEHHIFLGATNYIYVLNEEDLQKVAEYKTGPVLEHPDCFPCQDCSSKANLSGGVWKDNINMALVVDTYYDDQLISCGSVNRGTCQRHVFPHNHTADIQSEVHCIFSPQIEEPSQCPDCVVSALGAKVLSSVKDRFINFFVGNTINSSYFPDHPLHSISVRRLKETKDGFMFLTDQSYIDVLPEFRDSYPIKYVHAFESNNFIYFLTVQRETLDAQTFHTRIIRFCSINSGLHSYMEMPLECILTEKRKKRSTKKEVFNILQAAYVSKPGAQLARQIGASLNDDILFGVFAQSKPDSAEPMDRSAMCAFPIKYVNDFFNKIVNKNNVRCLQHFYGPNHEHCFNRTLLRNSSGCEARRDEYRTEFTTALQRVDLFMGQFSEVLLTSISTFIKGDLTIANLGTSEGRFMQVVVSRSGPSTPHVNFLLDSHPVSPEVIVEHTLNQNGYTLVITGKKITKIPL
T2 sequence (P08581 25-932 limits assumed): as the sequence (P08581 25-932 limits assumed) above
c-Met, sequence (P08581 25-307 limits assumed): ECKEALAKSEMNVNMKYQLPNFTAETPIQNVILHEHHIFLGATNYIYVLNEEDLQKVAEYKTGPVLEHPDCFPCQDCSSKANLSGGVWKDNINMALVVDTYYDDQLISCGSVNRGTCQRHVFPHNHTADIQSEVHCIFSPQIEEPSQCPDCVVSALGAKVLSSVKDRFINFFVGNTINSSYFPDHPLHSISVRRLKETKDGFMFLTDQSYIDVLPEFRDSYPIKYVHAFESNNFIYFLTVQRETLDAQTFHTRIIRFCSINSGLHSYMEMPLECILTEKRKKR
c-Met, sequence (P08581 308-932 limits assumed): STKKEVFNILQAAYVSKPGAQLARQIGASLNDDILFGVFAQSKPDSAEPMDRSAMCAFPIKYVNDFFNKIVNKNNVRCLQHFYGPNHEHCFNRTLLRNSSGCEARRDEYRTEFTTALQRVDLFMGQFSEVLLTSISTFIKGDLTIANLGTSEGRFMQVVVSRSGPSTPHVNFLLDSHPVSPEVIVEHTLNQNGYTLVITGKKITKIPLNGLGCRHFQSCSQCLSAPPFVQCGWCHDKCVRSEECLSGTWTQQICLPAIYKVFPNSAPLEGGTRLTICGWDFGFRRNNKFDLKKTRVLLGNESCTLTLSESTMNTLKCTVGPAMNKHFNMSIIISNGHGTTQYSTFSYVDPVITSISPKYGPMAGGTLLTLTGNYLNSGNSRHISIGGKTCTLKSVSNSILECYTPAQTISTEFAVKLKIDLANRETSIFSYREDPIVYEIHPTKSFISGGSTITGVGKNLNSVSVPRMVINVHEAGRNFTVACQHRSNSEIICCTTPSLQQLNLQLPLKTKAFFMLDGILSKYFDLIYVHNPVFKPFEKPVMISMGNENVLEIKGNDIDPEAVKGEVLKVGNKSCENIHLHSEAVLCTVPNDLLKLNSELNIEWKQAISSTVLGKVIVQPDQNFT

Molecule: CCC1=C[C@@H]2CN(C1)Cc1c([nH]c3ccccc13)[C@@](C(=O)OC)(c1cc3c(cc1OC)N(C)[C@H]1[C@@](O)(C(=O)OC)[C@H](OC(C)=O)[C@]4(CC)C=CCN5CC[C@]31[C@@H]54)C2 [Navelbine®, reference compound]
- reduction of average tumor volume (NCI-H441 [1]): 76%

B1: 11E1 Fab: Fab fragment of mAb 11E1 generated by papain cleavage (antibody, V domains shown)
VH: QVQLQQSGAELAKPGASVKMSCKASGYTFTSYWMNWVKQRPGQGLEWIGYINPTTGSTDYNQKLKDKATLTADKSSNTAYMQLSSLTSEDSAVYYCAIGGYGSWFAYWGQGTLVTVSA
VL: QIVLTQSPAIMSASPGEKVTLTCSASSSVSSTYLYWYQQKPGSSPKLWIYTTSILASGVPARFSGSGSGTSYSLTISSMETEDAASYFCHQWSSYPFTFGSGTKLDIK
- Kon1 × 10^−6 [1/M · s] [2]: 1.13 ± 0.01 × 10^−6 [1/M · s]

B2: 227H1: murine anti-c-Met monoclonal antibody, IgG1 kappa; heavy chain SEQ ID No. 19, light chain SEQ ID No. 22 (antibody, V domains shown)
VH: EVQLQQSGPELVKPGASMKISCKASGYSFTDYTLNWVKQSHGKTLEWIGLINPYNGGTTYNQKFKGKATLTVDKSSSTAYMELLSLTSEDSAVYYCAREEITKDFDFWGQGTTLTVSS
VL: GIVLTQSPASLAVSLGQRATISCRVSESIDTYGNSFIHWYQQKPGQPPKLLIYRASNLESGIPARFSGSGSRTDFTLTINPVEADDSATYYCQQSNEDPFTFGSGTKLEMK
modifications: mus musculus
- inhibition of in vivo growth of NCI-H441 (NCI-H441 [3]): inhibited significantly
- inhibition of dimerization (c-Met): 52%
- maximum of HGF binding displacement (HGF-cMet): 100%
- binding to SEMA domain (SEMA domain): did not bind
- agonist activity on cell proliferation (BxPC3 cells): without any agonist activity
- agonist effect on invasion, added alone (A549 cells): No agonist effect

B3: 224G11 Fab: Fab fragment of mAb 224G11 generated by papain cleavage (antibody, V domains shown)
VH: EVQLQQSGPELVKPGASVKISCKTSGYIFTAYTMHWVRQSLGESLDWIGGIKPNNGLANYNQKFKGKATLTVDKSSSTAYMDLRSLTSEDSAVYYCARSEITTEFDYWGQGTALTVSS
VL: DIVLTQSPASLAVSLGQRATISCRASESVDSYANSFMHWYQQKPGQPPKLLIYRASNLESGIPARFSGSGSRTDFTLTINPVEADDVATYYCQQSKEDPLTFGSGTKLEMK
- Kon1 × 10^−6 [1/M · s] [2]: 2.04 ± 0.01 × 10^−6 [1/M · s]
